Each block holds one molecule with its values, some of them ahead of it.
Assays:
[1] = molecular target: Human rRAGE, full-length RAGE recombinant protein from Merck (human) (UniProt Q15109); assay: SPR, antibody amine-coupled to a CM5 chip as ligand, rRAGE protein as analyte at 0.0156-0.35 µM, 1:1 binding fit
[2] = molecular target: synthetic peptide S155 of the RAGE V-domain (amino acids 39-65) (human); assay: SPR, antibody amine-coupled to a CM5 chip as ligand, peptide S155 (B-Rad) as analyte at 0.25-4 µM, 1:1 binding fit
[3] = molecular target: synthetic peptide S155 of the RAGE V-domain (amino acids 39-65) (human); assay: SPR (Biacore T200), antibody amine-coupled to a CM5 chip as ligand, RAGE peptide S155 (BioRad) as analyte, multi-cycle kinetics, 1:1 fit; 'No steady state.'
RAGE = RAGE (Homo sapiens, UniProt Q15109); assay: Binding target blocking assay by immunofluorescence on HEC-1A cells; type: cell-based; design: endogenous in cells; host or cells: HEC-1A (ECACC); details: then antibody at 4 μg/ml
Protocol: To proof that HA9 shares similar binding epitope as other α-RAGE antibodies, an immunofluorescence approach was used. For this purpose, 1.5×10^4 HEC1A cells/well (obtained from the European Collection of Authenticated Cell Cultures, ECACC, Public Health England, UK) were seeded in 8-well chamber slides (Ibidi) in 300 μl of stripped medium and cultured for 24 h in a humidified, 5% CO2 in air atmosphere incubator at 37° C. After culture, cells were fixed with 4% paraformaldehyde (Sigma) for 20 minutes, permeabilized with 0.1% Triton X-100 (Sigma) for 10 minutes at 4° C. and blocked with 3% BSA in PBS for 1 h. Cells were then pre-incubated with a primary antibody against RAGE at a concentration in excess (20 μg/ml in 3% BSA in PBS for 1 h) to block the specific epitope they bind, before cells were incubated with the α-RAGE antibody of interest at 4 μg/ml in 3% BSA-PBS overnight at 4° C. This was followed by 1 h incubation with Alexa-fluorophore-conjugated secondary antibodies. Cells were washed with PBS extensively between all steps, counterstained before imaging with Hoechst (Life Technologies™) and imaged using a LSM710 confocal fluorescence microscopy system (Zeiss, UK). The mean intensity of fluorescence was obtained using imageJ by measuring the integrated density per imaged field, normalised by the number of cells in the respective field and obtaining the mean from >10 fields obtained per condition. A decrease in fluorescence in the pre-blocked condition compared with the not-pre-blocked condition means both antibodies share similar epitope of binding on the same protein.

[4] = molecular target: T1, synthetic peptide S155 of the RAGE V-domain (amino acids 39-65) (human); assay: SPR (Biacore T200), antibody amine-coupled to a CM5 chip as ligand, RAGE Peptide (S155) as analyte, multi-cycle kinetics, 1:1 fit; 'No steady state.'
T1 construct: injected as analyte in SPR; also called RAGE synthetic peptide
T1 peptide: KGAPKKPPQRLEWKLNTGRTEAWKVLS
Protocol: (§1) Data were then fitted to a 1:1 binding model.
(§2) For on-rate and off-rate screening, Biacore™ T200 system (Cytiva, Uppsala, Sweden) was used to perform SPR analysis with 1×HBS-EP+ buffer (0.01M Hepes, 0.15M NaCl, 0.003M ethylenediaminetetraacetic acid, and 0.05% Surfactant P20, pH 7.4) (BR100669) used as sample and running buffer. The analysis temperature at the sensor chip surface and within the compartment was set to 25° C. Firstly, pH scouting with 10 mM sodium acetate buffer 4.0 (BR-1003-49), 10 mM sodium acetate buffer 4.5 (BR-1003-50), 10 mM sodium acetate buffer 5.0 (BR-1003-51) and 10 mM sodium acetate buffer 5.5 (BR-1003-52) was performed to identify the optimal pH required for ligand (α-RAGE antibodies) immobilization. This was followed by diluting the ligand with the appropriate Acetate buffer to at least 10 μg/mL. The ligand immobilization on the surface Series S Sensor Chip CM5 (29-1496-03, Cytiva) was performed using the Amine Coupling Kit (BR100050, Cytiva) containing 1-Etyhyl-3-(3-dimethylaminopropyl)-carbodiimide hydrochloride (EDC), N-Hydroxysuccinimide (NHS) and 1.0M ethanolamine-HcL PH 8.5 in accordance with the manufacturer's instructions. For each experimental run, the ligand was immobilized in flow cells 2 or 4 while flow cells 1 or 3 were left unmodified.

[5] = molecular target: T1, synthetic peptide S155 of the RAGE …; assay: SPR (Biacore T200), antibody amine-coupled to a CM5 chip as ligand, RAGE peptide S155 (BioRad) as analyte, multi-cycle kinetics, 1:1 fit; 'No steady state.'
Protocol: This was followed by diluting the ligand with the appropriate Acetate buffer to at least 10 μg/mL. The ligand immobilization on the surface Series S Sensor Chip CM5 (29-1496-03, Cytiva) was performed using the Amine Coupling Kit (BR100050, Cytiva) containing 1-Etyhyl-3-(3-dimethylaminopropyl)-carbodiimide hydrochloride (EDC), N-Hydroxysuccinimide (NHS) and 1.0M ethanolamine-HcL PH 8.5 in accordance with the manufacturer's instructions. For each experimental run, the ligand was immobilized in flow cells 2 or 4 while flow cells 1 or 3 were left unmodified. […] Following each binding cycle, the surface was regenerated with a 30 s injection of 10 mM Glycine-HcL, pH 2.5 regeneration solution (BR-1003-56), removing the bound antibody with a contact time of 30 s, flow rate of 30 μL/min and a stabilization period of Os. Blank cycles (buffer only injection followed by regeneration step) was also performed. Data was double referenced by first subtracting responses from the reference flow cell and then subtracting the blank cycles. Data was then fitted to a 1:1 binding model using Biacore™ T200 Evaluation Software 2.0 and Biacore™ Insight Evaluation Software.
SPR analysis was subsequently used to evaluate the binding kinetics of the different murine clones to their targets (either using synthetic peptide used to produce the clones or recombinant RAGE protein (Uniprot reference: Q15109-1) Peptide S155=Original peptide from Biorad used to produce the murine clones. Human rRAGE=Full-length RAGE recombinant protein from Merck). The SPR parameters used for this analysis are described in the detailed methods.

[6] = molecular target: T1, synthetic peptide S155 of the RAGE …; assay: ELISA, BSA-conjugated peptide S155 on the plate, two-fold dilutions of antibody, HRP anti-mouse, OD 450 nm
Protocol: FIG. 2: Screening of purified anti-RAGE antibodies by enzyme linked immunosorbent assay (ELISA). BSA-conjugated synthetic peptides of RAGE protein were immobilized onto microplates and incubated with two-fold serial dilutions of antibodies.
A 96-well plate was coated with 5 μg/ml of RAGE synthetic peptides or RAGE recombinant protein diluted in phosphate-buffered saline (pH 7.4) overnight at 4° C. The solution was removed, washed with PBS-Tween (PBST) and the plate was blocked with ELISA ultrablock buffer (Biorad) for 1 h at room temperature. After blocking, the plate was washed with PBST and a range of concentrations of α-RAGE antibodies was applied to the plate for 2 h at room temperature. The plate was washed thoroughly with PBST and incubated with HRP-conjugated anti-mouse antibodies diluted 1:1000 in PBS-Tween. After washes with PBST, TMB Core+ substrate solution (Biorad) was added to each well and incubated at room temperature for 30 minutes. 0.2M H2SO4 was used as a stop solution. Absorbance at 450 nm was measured in a Biorad absorbance microplate reader.
The initial screening of the 6 murine antibody clones against RAGE was undertaken by ELISA. For this evaluation a range of 15 concentrations of each antibody clone was applied to the plate.

[7] = molecular target: T1, synthetic peptide S155 of the RAGE …; assay: SPR (Biacore T200), antibody amine-coupled to a CM5 chip as ligand, RAGE Peptide (S155) as analyte, multi-cycle kinetics, 1:1 fit
Protocol: as §1, §2

Sequence of Human rRAGE, full-length RAGE recombinant protein from Merck (human) (Q15109 23-404 limits assumed): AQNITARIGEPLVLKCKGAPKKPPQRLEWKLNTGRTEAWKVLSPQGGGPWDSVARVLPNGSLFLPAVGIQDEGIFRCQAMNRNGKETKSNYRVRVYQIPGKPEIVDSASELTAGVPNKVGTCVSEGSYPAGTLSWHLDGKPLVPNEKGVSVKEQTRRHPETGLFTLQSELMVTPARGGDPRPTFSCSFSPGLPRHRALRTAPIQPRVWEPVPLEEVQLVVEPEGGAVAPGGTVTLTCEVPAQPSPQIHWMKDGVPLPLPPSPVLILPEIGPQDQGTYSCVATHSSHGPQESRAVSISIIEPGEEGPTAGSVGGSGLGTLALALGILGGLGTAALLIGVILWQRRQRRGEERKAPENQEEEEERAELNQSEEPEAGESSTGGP
Sequence of RAGE (Q15109 23-404): as the sequence (Q15109 23-404 limits assumed) above

- Kd [1]: 4.31 nM
- koff [1]: 0.00077 s⁻¹
- kon [1]: 180000 M⁻¹ s⁻¹
- Kd [2]: 54.1 nM
- koff [2]: 4.46 s⁻¹
- kon [2]: 8.2e+07 M⁻¹ s⁻¹
Molecule: α-RAGE Abcam (Abcam, ab37647) (antibody)

- EC50 (read off the curve) [6]: ~0.02 µg/mL
- Kd [5]: 860 nM
- koff [5]: 0.00326 s⁻¹
- kon [5]: 3790 M⁻¹ s⁻¹
B7: murine IG7 anti-RAGE monoclonal antibody (antibody, V domains shown)
VH: EVKLDETGGGLVQPGRPMKLSCIASGFTLSDYWMNWVRQSPEKGLEWVAQIRNRPYNFETLYSDSVKGRFIISRDDSKNSVYLQMDNLGPDDSGIYYCSSYRYGLAYWGQGTLVTVSA
VL: DILLTQSPAILSVSPGERVSISCRASQTIDKRIHWYQQRTNGSPRLLIKYMSESISGTPSRFSGSGSGTDFTLTINSVESEDIAVYYCQQTNYWPITFGSGTKLELK
notes: Same VH and VL as BG7; also called ID7

- EC50 (read off the curve) [6]: ~0.01 µg/mL
- Kd [5]: 720 nM
- koff [5]: 0.0033 s⁻¹
B8: murine HA9 (mHA9) anti-RAGE monoclonal antibody (antibody, V domains shown)
VH: EVKLVETGGGLVQPGRPMKLSCVASGFTLSDHWMNWVRQSPEKGLEWVAQIRNRPYKFEKYYSDSVKGRFTISRDDSKNSVYLQMNNLRAEDMGIYYCSSYRYGLAYWGQGTLVTVST
VL: DNLLTQSPAILSVSPGERVSFSCRASQTIDTRIHWYQQRKNGSPRLLIRYISESLSGIPSRFSGSGSGTEFTLTINSVESEDIADYYCQQTESWPITFGSGTKLEIK
notes: Murine hybridoma antibody, purified on protein G; also called HA9 clone

The next lines start with the molecule.

B1: murine BC3 anti-RAGE monoclonal antibody (antibody, part only; not given: Light chain variable region, V domains shown, part only)
VH: QVQLKQSGPGLVQPSQSLSITCTVSGFSLTNYGVHWVRQSPGKGLEWLGVIWTGGNTDYNAAFISRLSITKDNSKSQVFFKMNSLQANDTAIYYCARNLRGGYYGAWFAYWGQGTLVTVSA
- Kd [3]: 890 nM
- koff [3]: 0.00333 s⁻¹
- kon [3]: 3720 M⁻¹ s⁻¹

B2: CG7: anti-RAGE antibody clone raised against RAGE peptide aa 39-65 (antibody, V domains shown)
VH: B1 VH
VL: DVVMTQTPLSLPVSLGDQASISCRSSQTLVHSNGNTYLHWYLQKPGQSPKLLIYKVSNRFSGVPDRFTGSGSGTDFTLKISRVEAEDLGVYFCSQSTHVPPLTFGAGTKLELK
- staining after Abcam antibody pre-blocking (RAGE; Abcam antibody 20 μg/ml pre-incubation): did not result in a decrease
- staining after N16 pre-blocking (RAGE; N16 20 μg/ml pre-incubation): unaffected

B3: Anti-CG7 (Chimeric) (antibody, V domains shown)
VH: B1 VH
VL: B2 VL
notes: also called hCG7; chimeric CG7
- Kd [4]: 320 nM
- koff [4]: 0.0095 s⁻¹

B4: murine CG7 (mCG7) anti-RAGE monoclonal antibody (antibody, V domains shown)
VH: B1 VH
VL: B2 VL
notes: Murine hybridoma antibody
- Kd [5]: 296 nM
- koff [5]: 0.00901 s⁻¹
- kon [5]: 30000 M⁻¹ s⁻¹

B5: murine BG7 anti-RAGE monoclonal antibody (antibody, V domains shown)
VH: B7 VH
VL: B7 VL
notes: Murine hybridoma antibody
- EC50 (read off the curve) [6]: ~0.02 µg/mL
- Kd [5]: 410 nM
- koff [5]: 0.02 s⁻¹
- kon [5]: 49000 M⁻¹ s⁻¹

B6: Anti-BG7 (Chimeric) (antibody, V domains shown)
VH: B7 VH
VL: B7 VL
notes: also called hBG7; chimeric BG7
- Kd [4]: 607 nM
- koff [4]: 0.0028 s⁻¹

B9: chimeric HA9 (hHA9) anti-RAGE antibody (antibody, V domains shown)
VH: B8 VH
VL: B8 VL
notes: Chimeric ('chimeric humanised format') version of HA9 made in HEK293 by Absolute Antibody
- Kd [7]: 203 nM
- koff [7]: 0.0032 s⁻¹
